This passage reports terephthalic acid results from the supplement of paper PMC11196671.

± gives the standard deviation of the averaged measurements.

A short description of this series: terephthalic acid (TPA) released, HPLC; higher = more TPA released; extreme values may be limits of the assay. As to conditions: 24 h. The procedure: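 Purified PET hydrolases, 2.5 ug enzyme on 3.5 mg amorphous PET film (aFilm) or crystalline PET powder (cryPow) in 0.5 mL of 50 mM buffer (NaCitrate pH 4.5/5.5, NaPhosphate 6.5/7.5, glycine 8.5/9.5) at 60 or 70 C with shaking for 24 h. Total aromatic product by UV-Vis (260/280 nm, blank-subtracted, normalised per mg enzyme) and individual TPA, MHET, BHET concentrations by UHPLC-DAD at 240 nm; duplicate reactions.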

Where [1] appears, read: PET substrate: aFilm, 60 °C, pH 4.5.
Setting [2] is: PET substrate: aFilm, 60 °C, pH 5.5.
The mark [3] stands for this setting: PET substrate: aFilm, 60 °C, pH 6.5.
Setting [4] is: PET substrate: aFilm, 60 °C, pH 7.5.
The mark [5] stands for this setting: PET substrate: aFilm, 60 °C, pH 8.5.
Setting [6] is: PET substrate: aFilm, 60 °C, pH 9.5.
The mark [7] stands for this setting: PET substrate: aFilm, 70 °C, pH 4.5.
[8] abbreviates: PET substrate: aFilm, 70 °C, pH 5.5.
Setting [9] is: PET substrate: aFilm, 70 °C, pH 6.5.
The mark [10] stands for this setting: PET substrate: aFilm, 70 °C, pH 7.5.
Where [11] appears, read: PET substrate: aFilm, 70 °C, pH 8.5.
[12] abbreviates: PET substrate: aFilm, 70 °C, pH 9.5.
Where [13] appears, read: PET substrate: cryPow, 60 °C, pH 4.5.
The mark [14] stands for this setting: PET substrate: cryPow, 60 °C, pH 5.5.
[15] abbreviates: PET substrate: cryPow, 60 °C, pH 6.5.
Where [16] appears, read: PET substrate: cryPow, 60 °C, pH 7.5.
Where [17] appears, read: PET substrate: cryPow, 60 °C, pH 8.5.
[18] abbreviates: PET substrate: cryPow, 60 °C, pH 9.5.
[19] abbreviates: PET substrate: cryPow, 70 °C, pH 4.5.
Setting [20] is: PET substrate: cryPow, 70 °C, pH 5.5.
[21] abbreviates: PET substrate: cryPow, 70 °C, pH 6.5.
Where [22] appears, read: PET substrate: cryPow, 70 °C, pH 7.5.
[23] abbreviates: PET substrate: cryPow, 70 °C, pH 8.5.
Setting [24] is: PET substrate: cryPow, 70 °C, pH 9.5.

Take “QTNPYARGPNPTAASLEASAGPFTVRSFTVSRPSGYGAGTVYYPTNAGGTVGAIAIVPGYTARQSSIKWWGPRLASHGFVVITIDTNSTFDYPSSRSSQQMAALRQVASLNGDSSSPIYGKVDTARMGVMGHSMGGGASLRSAANNPSLKAAIPQAPWDSQTNFSSVTVPTLIFACENDSIAPVNSHALPIYDSMSRNAKQFLEINGGSHSCANSGNSNQALIGKKGVAWMKRFMDNDTRYSTFACENPNSTAVSDFRTANCS [DuraPETase]”: the terephthalic acid was determined as 0.00462 ± 0.0065 mM under setting [1]; 0 mM under setting [2]; 0 mM under setting [3]; 0.102 ± 0.0056 mM under setting [4]; 0.0886 ± 0.028 mM under setting [5]; 0.344 ± 0.23 mM under setting [6]. In addition, the terephthalic acid by setting is: under setting [7], 0 mM; under setting [8], 0 mM; under setting [9], 0 mM; under setting [10], 0.0128 ± 0.0049 mM; under setting [11], 0.0158 ± 0.0083 mM; under setting [12], 0.0892 ± 0.011 mM. The terephthalic acid runs as follows: under setting [13], 0 mM; under setting [14], 0 mM; under setting [15], 0.00832 ± 0.0013 mM; under setting [16], 0.0835 ± 0.0026 mM; under setting [17], 0.0926 ± 0.0049 mM; under setting [18], 0.384 ± 0.049 mM. Besides, the terephthalic acid under setting [19] worked out at 0 mM; the terephthalic acid under setting [20] turned out to be 0 mM; the terephthalic acid under setting [21] amounted to 0 mM; the terephthalic acid under setting [22] was 0.12 ± 0.03 mM; the terephthalic acid under setting [23] amounted to 0.0557 ± 0.011 mM; the terephthalic acid under setting [24] came out at 0.0155 ± 0.005 mM.

For the sequence “SNPYQRGPNPTRSALTADGPFSVATYTVSRLSVSGFGGGVIYYPTGTSLTFGGIAMSPGYTADASSLAWLGRRLASHGFVVLVINTNSRFDGPDSRASQLSAALNYLRTSSPSAVRARLDANRLAVAGHSMGGGGTLRIAEQNPSLKAAVPLTPWHTDKTFNTSVPVLIVGAEADTVAPVSQHAIPFYQNLPSTTPKVYVELCNASHIAPNSNNAAISVYTISWMKLWVDNDTRYRQFLCNVNDPALCDFRTNNRHCQ [LCC-ICCG]”, the terephthalic acid is, setting by setting: under setting [1], 0.0137 ± 0.0054 mM; under setting [2], 0.309 ± 0.094 mM; under setting [3], 0.78 ± 0.092 mM; under setting [4], 3.41 ± 0.37 mM; under setting [5], 0.472 ± 0.16 mM; under setting [6], 2.3 ± 0.49 mM. Further, the terephthalic acid under setting [7] was determined as 0 mM; the terephthalic acid under setting [8] stood at 0.25 ± 0.092 mM; the terephthalic acid under setting [9] was 0.362 ± 0.054 mM; the terephthalic acid under setting [10] worked out at 2.48 ± 0.41 mM; the terephthalic acid under setting [11] turned out to be 0.287 ± 0.15 mM; the terephthalic acid under setting [12] amounted to 1.72 ± 0.14 mM. Moreover, the terephthalic acid worked out at 0.0129 ± 0.0027 mM under setting [13]; 0.0979 ± 0.017 mM under setting [14]; 0.113 ± 0.024 mM under setting [15]; 0.308 ± 0.14 mM under setting [16]; 0.121 ± 0.023 mM under setting [17]; 0.516 ± 0.15 mM under setting [18]. The terephthalic acid was determined as 0 mM under setting [19]; 0.0559 ± 0.019 mM under setting [20]; 0.0977 ± 0.033 mM under setting [21]; 0.409 ± 0.049 mM under setting [22]; 0.111 ± 0.024 mM under setting [23]; 0.682 ± 0.089 mM under setting [24].

In the case of “SNPYQRGPNPTRSALTADGPFSVATYTVSRLSVSGFGGGVIYYPTGTSLTFGGIAMSPGYTADASSLAWLGRRLASHGFVVLVINTNSRFDGPDSRASQLSAALNYLRTSDPSAVRARLDANRLAVAGHSMGGGATLRIAEQNPSLKAAIPLTPWHTQKTFNTSVPVLIVGAEADTVAPVSQHAIPFYQNLPSTTPKVYVELCNASHIAPNSNNAAISVYTISWMKLWVDNDTRYRQFLCNVNDPALCDFRTNNRHCQ [LCC-ICCG DAQI]”, the terephthalic acid under setting [1] is 0.0488 ± 0.0093 mM; the terephthalic acid under setting [2] worked out at 0.279 ± 0.0061 mM; the terephthalic acid under setting [3] is 0.541 ± 0.14 mM; the terephthalic acid under setting [4] was found to be 3.26 ± 0.3 mM; the terephthalic acid under setting [5] is 0.517 ± 0.04 mM; the terephthalic acid under setting [6] came out at 1.99 ± 0.35 mM. For the same sequence, the terephthalic acid stood at 0 mM under setting [7]; 0.1646 ± 0.00022 mM under setting [8]; 0.296 ± 0.044 mM under setting [9]; 2.26 ± 0.43 mM under setting [10]; 0.205 ± 0.037 mM under setting [11]; 1.45 ± 0.086 mM under setting [12]. Besides, the terephthalic acid is 0.0214 ± 0.0007 mM under setting [13]; 0.0856 ± 0.009 mM under setting [14]; 0.0997 ± 0.011 mM under setting [15]; 0.216 ± 0.024 mM under setting [16]; 0.103 ± 0.0061 mM under setting [17]; 0.441 ± 0.029 mM under setting [18]. Moreover, the terephthalic acid under setting [19] came out at 0 mM; the terephthalic acid under setting [20] was found to be 0.04158 ± 9.1e-05 mM; the terephthalic acid under setting [21] came out at 0.0736 ± 0.0043 mM; the terephthalic acid under setting [22] was determined as 0.401 ± 0.017 mM; the terephthalic acid under setting [23] is 0.0916 ± 0.0065 mM; the terephthalic acid under setting [24] stood at 0.659 ± 0.042 mM.

On to “QTNPYARGPNPTAASLEASAGPFTVRSFTVARPVGYGAGTVYYPTNAGGTVGAIAIVPGYTATQSSINWWGPRLASHGFVVITIDTNSTLDKPESRSSQQMAALRQVASLNGTSSSPIYGKVDTARGGVMGWSMGGGGSLISAANNPSLKAAAVMAPWHSSTNFSSVTVPTLIFACENDRIAPVKEYALPIYDSMSLNAKQFLEICGGSHSCACSGNSNQALIGMKGVAWMKRFMDNDTRYSQFACENPNSTAVCDFRTANCS [HotPETase]”, for which the terephthalic acid runs as follows: under setting [1], 0 mM; under setting [2], 0.359 ± 0.0079 mM; under setting [3], 0.226 ± 0.034 mM; under setting [4], 1.04 ± 0.11 mM; under setting [5], 0.135 ± 0.023 mM; under setting [6], 1.35 ± 0.052 mM. The terephthalic acid by setting is: under setting [7], 0 mM; under setting [8], 0.00384 ± 0.0054 mM; under setting [9], 0.0729 ± 0.087 mM; under setting [10], 0.17 ± 0.18 mM; under setting [11], 0.0776 ± 0.023 mM; under setting [12], 0.684 ± 0.23 mM. Moreover, the terephthalic acid is 0.0209 ± 0.014 mM under setting [13]; 0.1228 ± 0.00078 mM under setting [14]; 0.157 ± 0.0075 mM under setting [15]; 0.3121 ± 0.0016 mM under setting [16]; 0.211 ± 0.0059 mM under setting [17]; 0.681 ± 0.028 mM under setting [18]. In addition, the terephthalic acid under setting [19] stood at 0 mM; the terephthalic acid under setting [20] amounted to 0.07122 ± 0.00039 mM; the terephthalic acid under setting [21] was determined as 0.118 ± 0.0081 mM; the terephthalic acid under setting [22] stood at 0.262 ± 0.051 mM; the terephthalic acid under setting [23] is 0.113 ± 0.0023 mM; the terephthalic acid under setting [24] came out at 0.489 ± 0.077 mM.

In the case of “QTNPYARGPDPTAASLEASAGPFTVRSFTVSRPSGYGAGTVYYPTNAGGTVGAIAIVPGYTARQSSIKWWGPRLASHGFVVITIDTNSTLDQPESRSSQQMAALEQVASLNGTSSSPIYGKVDTARMGVMGWSMGGGGSLISACNNPSLKAAVVQAPWHSSTNFSCVTVPTLIFACENDSIAPVNSSALPIYDSMSENAKQFLEICGGSHSCANTGNSDQALIGKKGVAWMKRFMDNDTRYSTFACENPNSTRVCDFRTANCS [Z1-PETase]”, the terephthalic acid runs as follows: under setting [1], 0 mM; under setting [2], 0 mM; under setting [3], 0.227 ± 0.03 mM; under setting [4], 0.685 ± 0.19 mM; under setting [5], 0.179 ± 0.076 mM; under setting [6], 1.22 ± 0.028 mM. Besides, the terephthalic acid under setting [7] amounted to 0 mM; the terephthalic acid under setting [8] stood at 0 mM; the terephthalic acid under setting [9] was determined as 0 mM; the terephthalic acid under setting [10] was 0.0109 ± 0.015 mM; the terephthalic acid under setting [11] turned out to be 0.00307 ± 0.0043 mM; the terephthalic acid under setting [12] amounted to 0.0495 ± 0.037 mM. Further, the terephthalic acid under setting [13] amounted to 0 mM; the terephthalic acid under setting [14] is 0.0408 ± 0.032 mM; the terephthalic acid under setting [15] stood at 0.114 ± 0.018 mM; the terephthalic acid under setting [16] stood at 0.236 ± 0.015 mM; the terephthalic acid under setting [17] stood at 0.225 ± 0.023 mM; the terephthalic acid under setting [18] amounted to 0.72 ± 0.023 mM. The terephthalic acid reads like this: under setting [19], 0 mM; under setting [20], 0 mM; under setting [21], 0.0337 ± 0.0038 mM; under setting [22], 0.17 ± 0.03 mM; under setting [23], 0.0464 ± 0.0031 mM; under setting [24], 0.367 ± 0.13 mM.
